Laboratory results published in PMC3278277.

Key:
Details in all cases: glycan gained; control: wild type
[1] = GALC blot and activity in H4 conditioned medium
[2] = Uptake index: recipient lysate activity / input medium activity
[3] = HNG colorimetric assay, stable H4 lysates
[4] = Anti-V5 blot of Ni-NTA purified C-terminal fragment, COS-1

B1: galactocerebrosidase (GALC): D528N (protein)
parent chain: MLGKSHGRATHGPLPLADLGIHLPCVKVLHQVTPEEKPAATSRLLVNYPEPYRSQILDYLFKPNFGASLHILKVEIGGDGQTTDGTEPSHMHYALDENYFRGYEWWLMKEAKKRNPNITLIGLPWSFPGWLGKGFDWPYVNLQLTAYYVVTWIVGAKRYHDLDIDYIGIWNERSYNANYIKILRKMLNYQGLQRVKIIASDNLWESISASMLLDAELFKVVDVIGAHYPGTHSAKDAKLTGKKLWSSEDFSTLNSDMGAGCWGRILNQNYINGYMTSTIAWNLVASYYEQLPYGRCGLMTAQEPWSGHYVVESPVWVSAHTTQFTQPGWYYLKTVGHLEKGGSYVALTDGLGNLTIIIETMSHKHSKCIRPFLPYFNVSQQFATFVLKGSFSEIPELQVWYTKLGKTSERFLFKQLDSLWLLDSDGSFTLSLHEDELFTLTTLTTGRKGSYPLPPKSQPFPSTYKDDFNVDYPFFSEAPNFADQTGVFEYFTNIEDPGEHHFTLRQVLNQRPITWAADASNTISIIGDYNWTNLTIKCDVYIETPDTGGVFIAGRVNKGGILIRSARGIFFWIFANGSYRVTGDLAGWIIYALGRVEVTAKKWYTLTLTIKGHFTSGMLNDKSLWTDIPVNFPKNGWAAIGTHSFEFAQFDNFLVEATR
[1]
  expression_or_secretion: decreases
[2]
  other: cellular uptake, other: uptake index: decreases
[3]
  enzymatic_activity, percent_of_wt: decreases
[4]
  other: proteolytic processing: no change
